For eight sequences, Kd and IC50 results are on record in the Immune Epitope Database (IEDB).

The target in experiment [1] is HLA-B*46:01. Kind of experiment: IEDB peptide-MHC binding, purified MHC/competitive/fluorescence; filed as Kd, often an IC50 or EC50 that approximates it; ≥ and ≤ were set here for values at or beyond the usual limits of such assays. The following applies: source organism: Influenza A virus (A/swine/Italy/1521/98(H1N2)).
A further experiment deals with HLA-B*27:05. Kind of experiment: IEDB peptide-MHC binding, purified MHC/direct/fluorescence; filed as Kd, often an IC50 or EC50 that approximates it; ≥ and ≤ were set here for values at or beyond the usual limits of such assays.
The target of a further experiment is HLA-C*12:03. Described as above.
Another experiment deals with HLA-B*58:01. The experiment is described as above.
The next experiment addresses HLA-A*11:01. Described as above.
The next experiment deals with HLA-A*03:01. Described as above.
The target of the next experiment is HLA-A*01:01. The experiment is described as above.
For experiment [2], the target named is HLA-B*15:01. Described as above.
Another experiment has as its target HLA-B*18:01. The experiment is described as above.
A further experiment has as its target HLA-B*08:01. The description is as above.
The next experiment deals with HLA-B*40:01. The description is as above.
For another experiment, the target named is HLA-A*02:11. The description is as above.
Experiment [3] deals with HLA-A*24:02. The description is as above. As to conditions: source organism: Influenza A virus (A/duck/Mongolia/47/2001(H7N1)).
A further experiment deals with HLA-B*07:02. Described as above.
The next experiment addresses HLA-B*44:02. The experiment is described as above.
In experiment [4] the target is HLA-B*15:01. Kind of experiment: IEDB peptide-MHC binding, purified MHC/competitive/fluorescence; filed as Kd, often an IC50 or EC50 that approximates it; ≥ and ≤ were set here for values at or beyond the usual limits of such assays. As to conditions: source organism: Bacillus cereus G9241.
The target of the next experiment is HLA-B*35:01. Described as above. As to conditions: source organism: Bacillus cereus G9241.
The target of the next experiment is HLA-C*06:02. In words: IEDB peptide-MHC binding, purified MHC/direct/fluorescence; filed as Kd, often an IC50 or EC50 that approximates it; ≥ and ≤ were set here for values at or beyond the usual limits of such assays.
For the next experiment, the target named is HLA-B*27:03. In words: IEDB peptide-MHC binding, purified MHC/competitive/fluorescence; filed as Kd, often an IC50 or EC50 that approximates it; ≥ and ≤ were set here for values at or beyond the usual limits of such assays.
For another experiment, the target named is HLA-B*51:01. The description is as above.
A further experiment addresses HLA-B*15:17. Described as above.
The target in a further experiment is HLA-A*26:01. Described as above.
Another experiment concerns the target HLA-B*57:01. Kind of experiment: IEDB peptide-MHC binding, purified MHC/direct/fluorescence; filed as Kd, often an IC50 or EC50 that approximates it; ≥ and ≤ were set here for values at or beyond the usual limits of such assays.
Experiment [5] concerns the target HLA-B*46:01. Described as above.
Another experiment has as its target HLA-A*69:01. The experiment is described as above.
The target of the next experiment is HLA-A*24:03. Described as above. The following applies: source organism: Zaire ebolavirus.
For a further experiment, the target named is HLA-A*29:02. Described as above. The following applies: source organism: Zaire ebolavirus.
The target in experiment [6] is HLA-B*39:01. The description is as above. As to conditions: source organism: Zaire ebolavirus.
In experiment [7] the target is HLA-A*02:01. The description is as above.
The target of experiment [8] is HLA-A*02:12. The experiment is described as above.
The next experiment has as its target HLA-A*31:01. Described as above.
The target of the next experiment is HLA-A*68:02. The experiment is described as above.
Experiment [9] deals with HLA-A*02:01. In words: IEDB peptide-MHC binding, purified MHC/competitive/fluorescence; ≥ and ≤ were set here for values at or beyond the usual limits of such assays. As to conditions: source organism: Zaire ebolavirus.
The target of experiment [10] is HLA-A*24:02. The description is as above. The following applies: source organism: Zaire ebolavirus.
Experiment [11] has as its target HLA-B*39:01. In words: IEDB peptide-MHC binding, purified MHC/competitive/fluorescence; filed as Kd, often an IC50 or EC50 that approximates it; ≥ and ≤ were set here for values at or beyond the usual limits of such assays. The following applies: source organism: Hantaan virus 76-118.
A further experiment concerns the target HLA-B*48:01. In words: IEDB peptide-MHC binding, purified MHC/direct/fluorescence; filed as Kd, often an IC50 or EC50 that approximates it; ≥ and ≤ were set here for values at or beyond the usual limits of such assays. As to conditions: source organism: Orthohantavirus hantanense.
Experiment [12] deals with HLA-A*02:01. In words: IEDB peptide-MHC binding, purified MHC/competitive/fluorescence; filed as Kd, often an IC50 or EC50 that approximates it; ≥ and ≤ were set here for values at or beyond the usual limits of such assays. As to conditions: source organism: Vibrio cholerae.
Experiment [13] addresses HLA-A*02:12. The experiment is described as above. The following applies: source organism: Vibrio cholerae.
The target of another experiment is HLA-A*02:19. The experiment is described as above. The following applies: source organism: Bacillus licheniformis.
[14] abbreviates: source organism: Influenza A virus (A/duck/Mongolia/47/2001(H7N1)).
[15] abbreviates: source organism: Influenza A virus (A/Puerto Rico/8/34/Mount Sinai(H1N1)).
The mark [16] stands for this setting: source organism: Zaire ebolavirus.
Where [17] appears, read: source organism: Hantaan virus 76-118.
Setting [18] is: source organism: Orthohantavirus hantanense.
Setting [19] is: source organism: Limestone Canyon virus.
Where [20] appears, read: source organism: Bacillus licheniformis.
[21] abbreviates: source organism: Mycobacterium tuberculosis variant bovis BCG str. Pasteur 1173P2.

In the case of FLKDVMESM, the dissociation constant Kd (as a rule, a measure of binding affinity in units of concentration) with HLA-B*46:01 [1] is 0.0239 µM; with HLA-B*27:05 (setting [14]) it was no less than 20 µM; with HLA-C*12:03 (source organism: Influenza A virus (A/swine/Italy/1521/98(H1N2))), no more than 0.001 µM; in the experiment with HLA-B*58:01 (setting [14]), no less than 20 µM; with HLA-A*11:01 (setting [14]) it was no less than 20 µM; with HLA-A*03:01 (setting [14]) it was no less than 20 µM. The Kd is no less than 20 µM in the experiment with HLA-A*01:01 (setting [14]); 0.22 µM in the experiment with HLA-B*15:01 [2] (setting [15]); no less than 20 µM with HLA-B*18:01 (setting [14]); 0.158 µM with HLA-B*08:01 (setting [15]); no less than 20 µM in the experiment with HLA-B*40:01 (setting [14]); no more than 0.001 µM with HLA-A*02:11 (source organism: Influenza A virus H3N2). The Kd is no less than 20 µM in the experiment with HLA-A*24:02 [3], 0.312 µM with HLA-B*07:02 (setting [15]) and no less than 20 µM with HLA-B*44:02 (setting [14]).
Consider FVHDSVQYF, for which the dissociation constant (Kd) with HLA-B*15:01 [4] stood at 0.0289 µM; with HLA-B*35:01, 0.0009 µM; with HLA-C*06:02 (source organism: Bacillus cereus G9241), 0.133 µM.
Consider GHMMVIFRL, for which the Kd with HLA-B*27:03 (setting [16]), with HLA-B*51:01 (setting [16]), with HLA-B*15:17 (setting [16]), with HLA-A*26:01 (setting [16]), with HLA-B*27:05 (setting [16]) and with HLA-B*57:01 (setting [16]) was no less than 20 µM each time. Besides, the Kd in the experiment with HLA-B*58:01 (setting [16]), in the experiment with HLA-B*46:01 [5] (setting [16]), with HLA-A*69:01 (setting [16]), with HLA-A*03:01 (setting [16]), with HLA-A*01:01 (setting [16]) and with HLA-B*15:01 [2] (setting [16]) was no less than 20 µM throughout. For the same sequence, the Kd with HLA-A*24:03 is no less than 20 µM; in the experiment with HLA-A*29:02 it was no less than 20 µM; with HLA-B*39:01 [6], 0.0867 µM; with HLA-B*18:01 (setting [16]), no less than 20 µM; with HLA-A*02:01 [7] (setting [16]), no less than 20 µM; with HLA-A*02:12 [8] (setting [16]), no less than 20 µM. Also, the Kd with HLA-B*40:01 (setting [16]), with HLA-A*02:11 (setting [16]), with HLA-A*31:01 (setting [16]), in the experiment with HLA-A*68:02 (setting [16]), in the experiment with HLA-B*07:02 (setting [16]) and in the experiment with HLA-B*44:02 (setting [16]) was no less than 20 µM in each case. Also, the results for the IC50 with HLA-A*02:01 [9] and in the experiment with HLA-A*24:02 [10] were 0.205 µM and 0.19 µM, respectively.
For the sequence IRKPKHLYV, the Kd in the experiment with HLA-B*27:03 (setting [17]), with HLA-B*51:01 (setting [17]), with HLA-B*15:17 (setting [17]), in the experiment with HLA-B*39:01 [11], in the experiment with HLA-A*26:01 (setting [17]) and with HLA-B*27:05 (setting [18]) was no less than 20 µM throughout. The Kd with HLA-B*57:01 (setting [18]), with HLA-B*58:01 (setting [18]), with HLA-B*46:01 [5] (setting [18]), with HLA-A*11:01 (setting [18]), in the experiment with HLA-A*69:01 (setting [18]) and with HLA-A*03:01 (setting [18]) was no less than 20 µM throughout. Also, the Kd was no less than 20 µM in the experiment with HLA-A*01:01 (setting [18]); no less than 20 µM in the experiment with HLA-B*15:01 [2] (setting [18]); no less than 20 µM in the experiment with HLA-B*18:01 (setting [18]); 14 µM with HLA-B*08:01 (source organism: Hantavirus CRF367); no less than 20 µM with HLA-A*02:01 [7] (setting [18]); no less than 20 µM with HLA-A*02:12 [8] (setting [19]). Also, the Kd is no less than 20 µM with HLA-B*48:01; no less than 20 µM in the experiment with HLA-B*40:01 (setting [18]); no less than 20 µM in the experiment with HLA-A*02:11 (setting [19]); no less than 20 µM with HLA-A*31:01 (setting [18]); no less than 20 µM with HLA-A*68:02 (setting [19]); 0.031 µM in the experiment with HLA-C*06:02 (setting [17]). Moreover, the Kd in the experiment with HLA-B*07:02 (setting [18]) and with HLA-B*44:02 (setting [18]) was no less than 20 µM in each case.
For NLNFDQAAL, the figures for the Kd in the experiment with HLA-A*02:01 [12] and with HLA-A*02:12 [13] were 0.0967 µM and 0.0828 µM, respectively.
As for RLIWSHHHI, the Kd with HLA-A*02:19 was determined as 0.0879 µM; with HLA-B*58:01 (setting [20]) it was 0.0247 µM; in the experiment with HLA-A*69:01 (setting [20]), 1.26 µM; in the experiment with HLA-B*15:01 [2] (setting [20]), 0.296 µM; with HLA-A*02:01 [7] (setting [20]) it was 1.21 µM; with HLA-A*31:01 (setting [20]), 0.462 µM. In the experiment with HLA-B*07:02 (setting [20]), this sequence came in with an equilibrium dissociation constant (Kd) of 12 µM.
For the sequence YAKFARITL, the Kd with HLA-C*12:03 (setting [21]) is no more than 0.001 µM.
YTWNGTQWV: the Kd in the experiment with HLA-C*06:02 (setting [21]) turned out to be 0.343 µM.
